Molecular target: prototype SARS-CoV-2 tandem RBD homotrimer (PPP) (SARS-CoV-2, UniProt P0DTC2)
Experiment: cryo-EM structure
Conditions: both partners purified

B1: fragment antigen binding (Fab) of mAb CB6 (Fab, V domains shown)
VH: EVQLVESGGGLVQPGGSLRLSCAASGFTVSSNYMSWVRQAPGKGLEWVSVIYSGGSTFYADSVKGRFTISRDNSMNTLFLQMNSLRAEDTAVYYCARVLPMYGDYLDYWGQGTLVTVSS
VL: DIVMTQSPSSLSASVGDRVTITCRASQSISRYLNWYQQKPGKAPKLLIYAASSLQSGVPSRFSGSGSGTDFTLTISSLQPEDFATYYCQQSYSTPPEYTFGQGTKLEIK
- stoichiometry N: 3
